Results on two molecules are retold here after US20080045454A1 (TRUSTEES OF COLUMBIA UNIVERSITY IN THE CITY OF NEW YORK, published 2008).

One test concerns the target T1, TRIMStop fused to lexA (owl monkey (Aotus trivirgatus)).
T1 construct: Yeast two-hybrid bait; also called LexA-TRIMStop; not shown: LexA, fusion partner of the yeast two-hybrid system
T1 chain: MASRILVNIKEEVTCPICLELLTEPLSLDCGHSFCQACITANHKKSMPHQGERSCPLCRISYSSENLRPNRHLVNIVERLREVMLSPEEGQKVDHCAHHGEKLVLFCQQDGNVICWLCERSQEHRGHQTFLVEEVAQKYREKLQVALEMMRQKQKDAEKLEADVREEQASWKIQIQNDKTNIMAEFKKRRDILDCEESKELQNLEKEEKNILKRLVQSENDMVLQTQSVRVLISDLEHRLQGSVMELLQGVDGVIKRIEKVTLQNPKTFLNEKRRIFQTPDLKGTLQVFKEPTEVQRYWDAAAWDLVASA
Put plainly: yeast two-hybrid, β-galactosidase reporter.

A further test addresses T2, TRIMCyp fused to lexA (owl monkey (Aotus trivirgatus)).
T2 construct: Yeast two-hybrid bait; also called LexA-TRIMCyp; not shown: LexA, fusion partner of the yeast two-hybrid system
Put plainly: yeast two-hybrid, β-galactosidase reporter.

In test [1] the target is T3, GST-TRIM5αhu (glutathione S-transferase fusion with full-length human TRIM5α) (human, UniProt Q9C035 2-493).
T3 construct: mature; Produced in 293T cells; also called GST-T5α; not shown: glutathione S-transferase (GST)
Put plainly: immunofluorescence colocalization in cotransfected TE671 cells.

T3 sequence (Q9C035 2-493): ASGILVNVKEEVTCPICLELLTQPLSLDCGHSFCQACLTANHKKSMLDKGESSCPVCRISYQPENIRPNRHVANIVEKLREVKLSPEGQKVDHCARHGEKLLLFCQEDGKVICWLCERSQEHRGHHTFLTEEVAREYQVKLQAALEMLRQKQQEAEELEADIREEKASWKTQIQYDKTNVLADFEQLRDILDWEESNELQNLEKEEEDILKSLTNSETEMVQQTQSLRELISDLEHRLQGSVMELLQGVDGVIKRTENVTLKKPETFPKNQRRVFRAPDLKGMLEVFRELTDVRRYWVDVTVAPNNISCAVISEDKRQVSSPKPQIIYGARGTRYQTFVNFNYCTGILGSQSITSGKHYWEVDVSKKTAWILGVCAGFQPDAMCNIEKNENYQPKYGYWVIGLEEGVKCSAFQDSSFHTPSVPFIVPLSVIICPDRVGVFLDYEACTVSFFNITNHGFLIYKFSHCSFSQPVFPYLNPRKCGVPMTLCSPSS
Protocol for TRIMCyp fused to lexA: (§1) (A) Yeast two-hybrid system. […] Pairs of fused LexA and B42 expression plasmids were transformed into Saccharomyces cerevisiae strain EGY48. For each transformant, β-galactosidase activity for three colonies is reported in Miller units with the standard deviation. (B) Binding in mammalian cells.
(§2) Fusions of these proteins with LexA and/or B42 were constructed, and the interactions between fusion proteins were analyzed using a previously described system (37) in which reporter gene β-galactosidase activity was assessed with a quantitative assay (43).
Protocol for TRIMStop fused to lexA: as §1, §2

B1: TRIMStop expressed in fusion with the B42 activation domain (other, not shown: large carriers)
chain: T1 chain
notes: also called B42-TRIMStop
As to B1, the binding result in the test with TRIMStop fused to lexA and in the test with TRIMCyp fused to lexA was “binds” each time.

B2: 3× FLAG N-terminal-tagged TRIMStop (other)
chain: T1 chain
notes: also called FLAG-TRIMStop; not shown: 3x FLAG tag of p3xFLAG.CMV (SIGMA)
For the molecule B2, the binding result in test [1] is “binds”.
